Consider 5 substances from paper PMC3627822.

In assay [1] the target is sochicetin-B (Echis sochureki). The assay can be described thus: ELISA.
Assay [2] concerns the target sochicetin-C (Echis sochureki). The assay can be described thus: ELISA. For orientation: An ELISA detects its analyte on a solid surface through an enzyme-linked reagent.
The target of assay [3] is sochicetin-A (Echis sochureki). The assay can be described thus: ELISA.
For assay [4], the target named is soluble integrin α2β1 ectodomain (UniProt P17301). The assay can be described thus: ELISA.
The target in assay [5] is sochicetin-A αβ heterodimer (Echis sochureki). The assay can be described thus: SDS-PAGE, non-reduced against reduced and partly reduced + MALDI-TOF.

For “recombinant GST-tagged integrin α2 A-domain (domain or fragment)”, the Kd (usually the concentration at which binding is half-saturated) worked out at 17.3 nM in assay [1], 54.5 nM in assay [2] and 11.7 nM in assay [3].

Regarding sochicetin-A (complex), the IC50 – broadly, the concentration that gives 50% inhibition – in assay [4] is 59.7 nM.

For sochicetin-A αβ heterodimer (complex), the stoichiometry N (as a rule, a count of units in the complex or per binding partner) in assay [5] was determined as 3.

Turning to sochicetin-B (complex), the IC50 in assay [4] was found to be 32.7 nM.

Take sochicetin-C (complex): in assay [4], the IC50 stood at 1480 nM.
